In experiment [1] the target is cellular microtubules (polymerised tubulin) (human (endogenous in HeLa)) (UniProt P68363). In words: FRAP; as a1, cells treated with 1 μM Nocodazole (30 min before and during FRAP) to disassemble microtubules.
The target is the same in experiment [2]. The experiment can be described thus: FRAP; live untreated reporter cells, 37°C, 5% CO2; EYFP bleached in a circular ROI of 2 μm radius in the cytoplasm; recovery fitted with two exponentials (A1 diffusing phase, A2 MT-bound phase).
For experiment [3] the target is unchanged.
Experiment [4] has the same target. The source holds these as a separate data set.

Sequence of UniProt P68363 (P68363 whole entry, chain 1 of 2): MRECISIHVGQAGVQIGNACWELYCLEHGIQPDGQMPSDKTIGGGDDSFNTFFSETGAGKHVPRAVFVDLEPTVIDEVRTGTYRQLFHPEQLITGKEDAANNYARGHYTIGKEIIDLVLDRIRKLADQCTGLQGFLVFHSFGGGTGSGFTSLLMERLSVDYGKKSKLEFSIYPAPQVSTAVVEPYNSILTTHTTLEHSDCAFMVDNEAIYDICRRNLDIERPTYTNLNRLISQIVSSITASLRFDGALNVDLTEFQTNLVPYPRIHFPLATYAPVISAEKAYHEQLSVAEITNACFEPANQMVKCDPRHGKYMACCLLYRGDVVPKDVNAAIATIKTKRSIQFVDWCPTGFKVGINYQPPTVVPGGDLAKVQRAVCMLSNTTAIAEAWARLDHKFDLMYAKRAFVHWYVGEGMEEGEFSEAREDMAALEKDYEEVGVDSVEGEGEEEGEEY
Sequence of UniProt P68363 (P07437 whole entry, chain 2 of 2, further chain): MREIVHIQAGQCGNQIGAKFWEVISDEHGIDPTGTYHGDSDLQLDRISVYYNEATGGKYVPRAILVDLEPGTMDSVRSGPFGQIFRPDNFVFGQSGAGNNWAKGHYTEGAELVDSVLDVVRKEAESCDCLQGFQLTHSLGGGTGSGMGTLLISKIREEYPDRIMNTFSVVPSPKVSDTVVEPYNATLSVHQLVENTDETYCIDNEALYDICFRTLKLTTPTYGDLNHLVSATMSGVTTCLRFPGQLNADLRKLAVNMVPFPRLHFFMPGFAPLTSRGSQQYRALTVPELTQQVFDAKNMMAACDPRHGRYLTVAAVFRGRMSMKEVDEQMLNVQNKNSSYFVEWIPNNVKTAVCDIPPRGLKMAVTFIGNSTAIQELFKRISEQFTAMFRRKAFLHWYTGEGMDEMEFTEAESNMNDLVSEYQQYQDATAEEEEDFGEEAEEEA

In experiment [1], “Conformational Sensitive Tau sensor (ECFP-Tau-EYFP, full length human Tau-D, 0N4R) (from UniProt P10636-6 1-383) (natural protein)” registered a fraction of the mobile molecules in the MT-bound phase (A2), with Nocodazole of 47%. For the same substance, in experiment [2], the fraction of the mobile molecules in the MT-bound phase (A2) amounted to 72% and the time constant of fluorescence recovery of the MT-bound phase (τ2) was 35.2 s. This substance also came in with an NFRET of CST (intramolecular, ECFP to EYFP) along MTs in untreated cells in experiment [3] of 14.5. In addition, the NFRET of CST during treatment with 1 μM nocodazole (time course; at 10 min) in experiment [4] came to 50%.

For the origin of these results see article PMC5492851.
